Patent US20200199204A1 (UNITED STATES OF AMERICA AS REPRESENTED BY THE SECRETARY …, published 2020)

B1: CAP256-VRC26.10 (antibody, V domains shown)
VH: QAILVESGGGVVQPGRSLRLSCAASQFTFSGHGLHWVRQAPGKGLEWVASISFAGTKMDYADSVKGRFAISRDNSKNTLYLQMNSLRVEDTALYYCAKDMREYECEYWTSDYYDFGRPQPCIDRRGVVGIFDMWGQGTMVTVST
VL: QSVLTQPPSVSAAPGQKVTISCSGSSSNIGDNYVSWYQHLPGTAPKLLIYENTRRPSGIPDRFSGSKSGTSATLAITGLQTGDEADYYCGTWDVRPNRGAVFGTGTKVTVLG
B2: CAP256-VRC26.12 (antibody, V domains shown)
VH: EVQLVQSGGGVVQPGRSLRLSCAAPYFEFGRYGFHWVRQAPGKGLEWVASISFAGRDYYHSPSVWGRFTISRDNSKNTLYLQMNSLRIEDTALYFCARDLRESECEEWESDYYDFGKKGPCVKPRGVAGGLDLWGQGTMVIVSS
VL: QSVLTQPPSVSTAPGQTVTVSCSGGTSNTGNNFVSWYQHLPGTAPKLLIYENNKRPLGVPDRFSGAKSGTSATLAITGLQTGDEGDYYCATWSGSLNIGTGTKVSVLG
B3: CAP256-VRC26.11 (antibody, V domains shown)
VH: EVQLVESGGGVVPPGKSLTLSCVASRFTFSAFGMHWVRQAPGKGLEWVASISFAGIKKYYADSVKGRFSISRDNSNTLFLQMNGLRGEDTGLYHCVKDMRELECEEWASDYYDFGKPQPCLDRRGVSGISAWWGPGTMVTVSS
VL: QSVLTQPPSVSAAPGQNVTISCSGPPSHIEKNDVSWYQRLPGMAPKMVIYESKRRPLGIPVRFSASRSGSSATLVITGLQTADEADYYCGTWDGRMNFGTGTTVSVLG

target: HIV-1 Env of QH0692.42 (HIV-1); assay: cell-based or functional assay

Row | Binder | neutralization IC50 [µg/mL]
1 | B1 | > 50
2 | B2 | > 50
3 | B3 | > 50

target: HIV-1 Env of RW020.2 (HIV-1); assay: cell-based or functional assay

Row | Binder | neutralization IC50 [µg/mL]
4 | B1 | > 50
5 | B2 | > 50
6 | B3 | > 50

target: HIV-1 Env of Q842.d12 (HIV-1); assay: cell-based or functional assay

Row | Binder | neutralization IC50 [µg/mL]
7 | B1 | > 50
8 | B2 | > 50
9 | B3 | > 50

target: HIV-1 Env of ZM197.7 (HIV-1); assay: cell-based or functional assay

Row | Binder | neutralization IC50 [µg/mL]
10 | B1 | 0.346
11 | B2 | > 50
12 | B3 | 0.055

target: HIV-1 Env of 6405.v4.c34 (HIV-1); assay: cell-based or functional assay

Row | Binder | neutralization IC50 [µg/mL]
13 | B1 | > 50
14 | B2 | > 50
15 | B3 | > 50

target: HIV-1 Env of PVO.04 (HIV-1); assay: cell-based or functional assay

Row | Binder | neutralization IC50 [µg/mL]
16 | B1 | 2.48
17 | B2 | > 50
18 | B3 | 10.8

target: HIV-1 Env of SC422.8 (HIV-1); assay: cell-based or functional assay

Row | Binder | neutralization IC50 [µg/mL]
19 | B1 | > 50
20 | B2 | > 50
21 | B3 | > 50

target: HIV-1 Env of DU172.17 (HIV-1); assay: cell-based or functional assay

Row | Binder | neutralization IC50 [µg/mL]
22 | B1 | > 50
23 | B2 | > 50
24 | B3 | > 50

target: HIV-1 Env of ZM135.10a (HIV-1); assay: cell-based or functional assay

Row | Binder | neutralization IC50 [µg/mL]
25 | B1 | > 50
26 | B2 | > 50
27 | B3 | > 50

target: HIV-1 Env of ZM109.4 (HIV-1); assay: cell-based or functional assay

Row | Binder | neutralization IC50 [µg/mL]
28 | B1 | > 50
29 | B2 | > 50
30 | B3 | > 50

target: HIV-1 Env of DU422.01 (HIV-1); assay: cell-based or functional assay

Row | Binder | neutralization IC50 [µg/mL]
31 | B1 | 8.2
32 | B2 | > 50
33 | B3 | 11.5

target: HIV-1 Env of ZM249.1 (HIV-1); assay: cell-based or functional assay

Row | Binder | neutralization IC50 [µg/mL]
34 | B1 | > 50
35 | B2 | > 50
36 | B3 | 34.5

target: HIV-1 Env of CAP256.PI (HIV-1); assay: cell-based or functional assay

Row | Binder | neutralization IC50 [µg/mL]
37 | B1 | > 50
38 | B2 | > 50
39 | B3 | > 50

target: HIV-1 Env of CAAN.A2 (HIV-1); assay: cell-based or functional assay

Row | Binder | neutralization IC50 [µg/mL]
40 | B1 | > 50
41 | B2 | > 50
42 | B3 | > 50

target: HIV-1 Env of MB201 (HIV-1); assay: cell-based or functional assay

Row | Binder | neutralization IC50 [µg/mL]
43 | B1 | > 50
44 | B2 | > 50
45 | B3 | > 50

target: HIV-1 Env of CM244.ec1 (HIV-1); assay: cell-based or functional assay

Row | Binder | neutralization IC50 [µg/mL]
46 | B1 | 0.914
47 | B2 | > 50
48 | B3 | 26.7

target: HIV-1 Env of 96ZM651.02 (HIV-1); assay: cell-based or functional assay

Row | Binder | neutralization IC50 [µg/mL]
49 | B1 | > 50
50 | B2 | > 50
51 | B3 | > 50

target: HIV-1 Env of 191821.E6.1 (HIV-1); assay: cell-based or functional assay

Row | Binder | neutralization IC50 [µg/mL]
52 | B1 | > 50
53 | B2 | > 50
54 | B3 | > 50

target: HIV-1 Env of ZM233.6 (HIV-1); assay: cell-based or functional assay

Row | Binder | neutralization IC50 [µg/mL]
55 | B1 | 0.228
56 | B2 | > 50
57 | B3 | 0.322

target: HIV-1 Env of WITO.33 (HIV-1); assay: cell-based or functional assay

Row | Binder | neutralization IC50 [µg/mL]
58 | B1 | > 50
59 | B2 | > 50
60 | B3 | > 50

target: HIV-1 Env of C1080.c3 (HIV-1); assay: cell-based or functional assay

Row | Binder | neutralization IC50 [µg/mL]
61 | B1 | > 50
62 | B2 | > 50
63 | B3 | 0.018

target: HIV-1 Env of ZM214.15 (HIV-1); assay: cell-based or functional assay

Row | Binder | neutralization IC50 [µg/mL]
64 | B1 | > 50
65 | B2 | > 50
66 | B3 | > 50

target: HIV-1 Env of 0260.v5.c36 (HIV-1); assay: cell-based or functional assay

Row | Binder | neutralization IC50 [µg/mL]
67 | B1 | > 50
68 | B2 | > 50
69 | B3 | > 50

target: HIV-1 Env of CAP244.D3 (HIV-1); assay: cell-based or functional assay

Row | Binder | neutralization IC50 [µg/mL]
70 | B1 | > 50
71 | B2 | > 50
72 | B3 | > 50

target: HIV-1 Env of BG505.w6m (HIV-1); assay: cell-based or functional assay

Row | Binder | neutralization IC50 [µg/mL]
73 | B1 | > 50
74 | B2 | > 50
75 | B3 | 4.2

target: HIV-1 Env of ZM53.12 (HIV-1); assay: cell-based or functional assay

Row | Binder | neutralization IC50 [µg/mL]
76 | B1 | 0.072
77 | B2 | 0.211
78 | B3 | 0.081

target: HIV-1 Env of MB539.2B7 (HIV-1); assay: cell-based or functional assay

Row | Binder | neutralization IC50 [µg/mL]
79 | B1 | > 50
80 | B2 | > 50
81 | B3 | > 50

target: HIV-1 Env of TRJO.58 (HIV-1); assay: cell-based or functional assay

Row | Binder | neutralization IC50 [µg/mL]
82 | B1 | > 50
83 | B2 | > 50
84 | B3 | > 50

target: HIV-1 Env of Q23.17 (HIV-1); assay: cell-based or functional assay

Row | Binder | neutralization IC50 [µg/mL]
85 | B1 | 2.59
86 | B2 | > 50
87 | B3 | > 50

target: HIV-1 Env of 3016.V5.c36 (HIV-1); assay: cell-based or functional assay

Row | Binder | neutralization IC50 [µg/mL]
88 | B1 | 0.017
89 | B2 | 7.93
90 | B3 | 0.3

target: HIV-1 Env of 6535.3 (HIV-1); assay: cell-based or functional assay

Row | Binder | neutralization IC50 [µg/mL]
91 | B1 | > 50
92 | B2 | > 50
93 | B3 | > 50

target: HIV-1 Env of TRO.11 (HIV-1); assay: cell-based or functional assay

Row | Binder | neutralization IC50 [µg/mL]
94 | B1 | > 50
95 | B2 | > 50
96 | B3 | > 50

target: HIV-1 Env of RHPA.7 (HIV-1); assay: cell-based or functional assay

Row | Binder | neutralization IC50 [µg/mL]
97 | B1 | > 50
98 | B2 | > 50
99 | B3 | > 50

target: HIV-1 Env of KER2008.12 (HIV-1); assay: cell-based or functional assay

Row | Binder | neutralization IC50 [µg/mL]
100 | B1 | > 50
101 | B2 | > 50
102 | B3 | > 50

target: HIV-1 Env of Q461.e2 (HIV-1); assay: cell-based or functional assay

Row | Binder | neutralization IC50 [µg/mL]
103 | B1 | > 50
104 | B2 | > 50
105 | B3 | > 50

target: HIV-1 Env of Q769.d22 (HIV-1); assay: cell-based or functional assay

Row | Binder | neutralization IC50 [µg/mL]
106 | B1 | > 50
107 | B2 | > 50
108 | B3 | > 50

target: HIV-1 Env of CAP256.SU (HIV-1); assay: cell-based or functional assay

Row | Binder | neutralization IC50 [µg/mL]
109 | B1 | 0.031
110 | B2 | 0.032
111 | B3 | 0.055

target: HIV-1 Env of REJO.67 (HIV-1); assay: cell-based or functional assay

Row | Binder | neutralization IC50 [µg/mL]
112 | B1 | > 50
113 | B2 | > 50
114 | B3 | > 50

target: HIV-1 Env of Q259.d2.17 (HIV-1); assay: cell-based or functional assay

Row | Binder | neutralization IC50 [µg/mL]
115 | B1 | 24.6
116 | B2 | > 50
117 | B3 | > 50

target: HIV-1 Env of CAP45.G3 (HIV-1); assay: cell-based or functional assay

Row | Binder | neutralization IC50 [µg/mL]
118 | B1 | > 50
119 | B2 | > 50
120 | B3 | > 50

target: HIV-1 Env of CAP210.E8 (HIV-1); assay: cell-based or functional assay

Row | Binder | neutralization IC50 [µg/mL]
121 | B1 | 0.1
122 | B2 | 0.072
123 | B3 | 0.073

target: HIV-1 Env of AC10.29 (HIV-1); assay: cell-based or functional assay

Row | Binder | neutralization IC50 [µg/mL]
124 | B1 | > 50
125 | B2 | > 50
126 | B3 | > 50

target: HIV-1 Env of UG037.8 (HIV-1); assay: cell-based or functional assay

Row | Binder | neutralization IC50 [µg/mL]
127 | B1 | > 50
128 | B2 | > 50
129 | B3 | > 50

target: HIV-1 Env of KER2018.11 (HIV-1); assay: cell-based or functional assay

Row | Binder | neutralization IC50 [µg/mL]
130 | B1 | 0.335
131 | B2 | > 50
132 | B3 | 1.76

target: HIV-1 Env of DU156.12 (HIV-1); assay: cell-based or functional assay

Row | Binder | neutralization IC50 [µg/mL]
133 | B1 | > 50
134 | B2 | > 50
135 | B3 | > 50

target: HIV-1 Env of THRO.18 (HIV-1); assay: cell-based or functional assay

Row | Binder | neutralization IC50 [µg/mL]
136 | B1 | > 50
137 | B2 | > 50
138 | B3 | > 50

target: HIV-1 Env of Q168.a2 (HIV-1); assay: cell-based or functional assay

Row | Binder | neutralization IC50 [µg/mL]
139 | B1 | > 50
140 | B2 | > 50
141 | B3 | > 50
